target: T1, Staphylococcal enterotoxin B (Staphylococcus aureus, strain , UniProt P01552); assay: SPR; details: both partners purified
T1 construct: source: bought: Toxin technologies
T1 sequence (P01552 28-266): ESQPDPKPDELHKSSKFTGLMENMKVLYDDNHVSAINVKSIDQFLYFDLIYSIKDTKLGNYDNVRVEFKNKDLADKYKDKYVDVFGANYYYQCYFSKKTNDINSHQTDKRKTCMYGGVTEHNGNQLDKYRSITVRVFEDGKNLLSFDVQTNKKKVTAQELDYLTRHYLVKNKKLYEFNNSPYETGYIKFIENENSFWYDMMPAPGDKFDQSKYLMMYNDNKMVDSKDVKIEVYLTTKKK

Binder	Kd [pM]
sdAb A3, anti-Staphylococcal Enterotoxin B single domain antibody (VHH, also called wild type sdAb A3) VHH: EVQLVESGGGLVQAGDSLRLSCTASGRTFSRAVMGWFRQAPGKEREFVAAISAAPGTAYYAFYADSVRGRFSISADSAKNTVYLQMNSLKPEDTAVYYCAADLKMQVAAYMNQRSVDYWGQGTQVTVSS	230
sdAb A3 Construct 4 (Q3C Y118C) (VHH, Keeps C22/C99) VHH: EVCLVESGGGLVQAGDSLRLSCTASGRTFSRAVMGWFRQAPGKEREFVAAISAAPGTAYYAFYADSVRGRFSISADSAKNTVYLQMNSLKPEDTAVYYCAADLKMQVAAYMNQRSVDCWGQGTQVTVSS	60
sdAb A3 Construct 3 (V33C M105C) (VHH, Keeps C22/C99) VHH: EVQLVESGGGLVQAGDSLRLSCTASGRTFSRACMGWFRQAPGKEREFVAAISAAPGTAYYAFYADSVRGRFSISADSAKNTVYLQMNSLKPEDTAVYYCAADLKCQVAAYMNQRSVDYWGQGTQVTVSS	210
sdAb A3 Construct 2 (A50C A108C) (VHH, Keeps C22/C99) VHH: EVQLVESGGGLVQAGDSLRLSCTASGRTFSRAVMGWFRQAPGKEREFVACISAAPGTAYYAFYADSVRGRFSISADSAKNTVYLQMNSLKPEDTAVYYCAADLKMQVCAYMNQRSVDYWGQGTQVTVSS	60
sdAb A3 Construct 1 (A49C I73C) (VHH, Keeps C22/C99) VHH: EVQLVESGGGLVQAGDSLRLSCTASGRTFSRAVMGWFRQAPGKEREFVCAISAAPGTAYYAFYADSVRGRFSCSADSAKNTVYLQMNSLKPEDTAVYYCAADLKMQVAAYMNQRSVDYWGQGTQVTVSS	660

— publication PMC4272287 (PLoS ONE, 2014)
